Among the data in PMC10998830 are Km, kcat and kcat/Km values, retold here.

In general, Km refers to the substrate concentration at which the rate is half of its maximum. For orientation: kcat means the maximal rate divided by the concentration of active sites. As a reminder, the kcat/Km is the turnover number divided by the Michaelis constant.

Several values for one entry are separate records, joined by “and”; a condition that tells them apart may be missing. Equal entries are not always repeated.

The test system of data set [1] is O=P(O)(O)OC[C@H]1O[C@H](OP(=O)(O)OP(=O)(O)O)[C@H](O)[C@@H]1O. The data set is described as follows: purified protein, by the assay type. Conditions: 25.0 °C. As to the method: (§1) Kinetics and thermal denaturation data were analysed by the nonlinear regression function of SigmaPlot 14.0 (SPSS Inc.). Thermal denaturation data were fitted to Eq. (1). Substrate saturation curves at a fixed concentration of the co-substrate were fitted to Eq. (2). Initial rate data at varying concentrations of HisZ were fitted to Eq. (3). The concentration of ATPPRT at any concentration of AbHisGS and AbHisZ was calculated according to Eq. (4). Histidine dose-response data were fitted to Eq. (5). Single-turnover data with WT-AbATPPRT isotopologues were fitted to Eq. (6). Plots of kcat ratios against relative viscosity were fitted to Eq. (7). Temperature-rate profile for AbHisGS was fitted to Eq. (8). Single-turnover data with R70A-AbATPPRT isotopologues were fitted to Eq. (9). In Eqs. […] While kcats for [^13C,^15N]AbHisGS and [^2H,^13C,^15N]AbHisGS are marginally lower than for unlabelled AbHisGS and [^15N]AbHisGS, the overlapping nature of most data points in Fig. 1c disagrees with distinguishable heavy-enzyme kinetic isotope effects on kcat (^HEkcat). […] This was further probed by pre-steady-state kinetics under multiple-turnover conditions. The AbHisGS reaction had been shown not to have a burst of product formation, which is reproduced here for unlabelled AbHisGS, whose traces overlap with those for [^2H,^13C,^15N]AbHisGS (Supplementary Fig. 5). S5 Supplementary Figure 4 Substrate saturation curves for unlabelled AbATPPRT with AbHisGS purified from cultures grown in M9 and M9 with high cell density compared with previously published data (reproduced here) for unlabelled AbATPPRT with AbHisGS purified from cultures grown in LB. For the M9 and M9 high cell density curves, all data points are shown for two independent measurements, except for the previously published LB curves, where data are the mean of two independent measurements. Lines are best fit of the data to equation (2): solid line for M9 high cell density curves, long-dashed line for M9 curves, and short-dashed line for previously published LB curves. Supplementary Figure 5 Rapid kinetics of PRATP formation at 25 °C by unlabelled AbHisGS and [2H,13C,15N]AbHisGS under multiple-turnover conditions. All traces are shown for eight replicates with each isotopologue.

Data set [2] concerns Nc1ncnc2c1ncn2[C@@H]1O[C@H](COP(=O)(O)OP(=O)(O)OP(=O)(O)O)[C@@H](O)[C@H]1O. As to the kind of experiment: purified protein, by the assay type. Conditions: 25.0 °C. The protocol:
as §1

As to AbHisGS (Acinetobacter baumannii ACICU), in data set [1], the Michaelis-Menten constant (Km) is 540 ± 40 µM and 330 ± 10 µM and 420 ± 20 µM; the catalytic constant (kcat) is 0.38 s⁻¹ and 0.34 s⁻¹; the kcat/Km was 700 M⁻¹ s⁻¹ and 1020 M⁻¹ s⁻¹ and 810 M⁻¹ s⁻¹. Moreover, in data set [2], the Km was 900 ± 100 µM and 800 ± 100 µM and 590 ± 30 µM; the turnover number (kcat) is 0.38 s⁻¹ and 0.34 s⁻¹; the kcat/Km was 420 M⁻¹ s⁻¹ and 580 M⁻¹ s⁻¹.
